± gives the standard deviation of the averaged measurements.
Assay: total protein half-life in vivo (active degradation + dilution); higher = more stable protein
[1] = E. coli NCM3722 delta-clpP delta-lon delta-hslV, growth: N-lim chemostat, doubling time 6 h
[2] = E. coli NCM3722 delta-hslV, growth: N-lim chemostat, doubling time 6 h
[3] = E. coli NCM3722 delta-lon, growth: N-lim chemostat, doubling time 6 h
[4] = E. coli NCM3722 delta-smpB, growth: N-lim chemostat, doubling time 6 h
[5] = wild type E. coli NCM3722, growth: C-lim chemostat, doubling time 3 h
[6] = wild type E. coli NCM3722, growth: C-lim chemostat, doubling time 6 h
[7] = wild type E. coli NCM3722, growth: C-lim chemostat, doubling time 12 h
[8] = wild type E. coli NCM3722, growth: N-lim chemostat, doubling time 6 h
[9] = wild type E. coli NCM3722, growth: N-lim chemostat, doubling time 12 h
[10] = wild type E. coli NCM3722, growth: P-lim chemostat, doubling time 6 h
[11] = wild type E. coli NCM3722, growth: P-lim chemostat, doubling time 12 h
[12] = E. coli NCM3722 delta-clpP, growth: N-lim chemostat, doubling time 6 h

P0ADC1, sequence (chain, as listed by the source): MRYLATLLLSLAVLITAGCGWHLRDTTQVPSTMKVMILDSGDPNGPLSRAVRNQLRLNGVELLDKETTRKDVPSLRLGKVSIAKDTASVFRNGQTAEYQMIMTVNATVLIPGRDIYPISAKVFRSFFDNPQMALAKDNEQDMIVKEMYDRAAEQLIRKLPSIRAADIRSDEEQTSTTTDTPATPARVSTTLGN
P0ABR5, sequence (chain, as listed by the source): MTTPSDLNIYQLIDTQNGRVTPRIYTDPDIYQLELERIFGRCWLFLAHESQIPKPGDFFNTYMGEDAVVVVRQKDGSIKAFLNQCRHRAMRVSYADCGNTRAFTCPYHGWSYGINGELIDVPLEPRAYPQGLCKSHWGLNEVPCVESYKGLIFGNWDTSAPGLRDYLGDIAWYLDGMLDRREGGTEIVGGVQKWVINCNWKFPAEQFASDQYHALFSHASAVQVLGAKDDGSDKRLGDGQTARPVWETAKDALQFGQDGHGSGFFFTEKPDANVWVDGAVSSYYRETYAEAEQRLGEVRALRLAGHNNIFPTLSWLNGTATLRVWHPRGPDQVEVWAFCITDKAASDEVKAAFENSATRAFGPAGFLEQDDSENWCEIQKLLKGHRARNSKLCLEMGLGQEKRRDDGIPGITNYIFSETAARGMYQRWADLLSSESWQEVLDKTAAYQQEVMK

Substance | total protein half-life in vivo [1] [h] | total protein half-life in vivo [2] [h] | total protein half-life in vivo [3] [h] | total protein half-life in vivo [4] [h] | total protein half-life in vivo [5] [h] | total protein half-life in vivo [6] [h] | total protein half-life in vivo [7] [h] | total protein half-life in vivo [8] [h] | total protein half-life in vivo [9] [h] | total protein half-life in vivo [10] [h] | total protein half-life in vivo [11] [h] | total protein half-life in vivo [12] [h]
MYYGFDIGGTKIALGVFDSGRQLQWEKRVPTPRDSYDAFLDAVCELVAEADQRFGCKGSVGIGIPGMPETEDGTLYAANVPAASGKPLRADLSARLDRDVRLDNDANCFALSEAWDDEFTQYPLVMGLILGTGVGGGLIFNGKPITGKSYITGEFGHMRLPVDALTMMGLDFPLRRCGCGQHGCIENYLSGRGFAWLYQHYYHQPLQAPEIIALYDQGDEQARAHVERYLDLLAVCLGNILTIVDPDLVVIGGGLSNFPAITTQLADRLPRHLLPVARVPRIERARHGDAGGMRGAAFLHLTD | 4.42 ± 0.85 | 3.76 ± 0.45 | 4.37 ± 0.18 | 4.06 ± 0.31 | 2.86 ± 0.4 | 4.98 ± 0.17 | 9.97 ± 0.28 | 3.9761 ± 0.0021 | 6.67 ± 1.1 | 6.09 ± 0.9 | 11.7 ± 0.2 | –
P0ABD3 | – | 6.83 ± 1.2 | 6.67 ± 0.28 | 6.17 ± 0.69 | – | 6.73 ± 1.5 | 11.4 ± 1.6 | 5.57 ± 0.29 | 13.5 ± 2.1 | 5.92 ± 0.82 | 13.2 ± 0.8 | 5.98 ± 0.58
P0ABR5 | 6.36 ± 1.3 | – | – | – | 1.02 | 2.09 | 3.87 ± 2.6 | – | – | 1.661 ± 0.003 | 2.48 ± 0.059 | –
P0ADC1 | 6.56 ± 1.7 | 6.27 ± 0.14 | – | 6.59 ± 0.86 | 2.97 ± 0.026 | 6.71 ± 0.69 | 12.9 ± 0.43 | 6.33 ± 0.095 | 11.7 ± 1.9 | – | 12.7 ± 0.69 | –
P0CK95 | – | – | – | – | 2.75 | – | – | – | – | 6.26 ± 0.39 | 13 ± 0.41 | –
P30015 | 6.18 ± 0.094 | 5.75 ± 0.43 | 5.14 ± 0.24 | 4.71 ± 0.31 | 2.92 | 6.31 ± 0.44 | 11.4 ± 3.1 | 5.5 ± 0.47 | 9.93 ± 0.82 | 5.97 ± 0.43 | 11.8 ± 0.42 | 5.87 ± 0.33
P77704 | 6.54 ± 0.9 | 1.5 | 2.26 | 1.31 | – | – | – | 1.53 ± 0.3 | 2.2 | – | – | –

Source: the supplement of paper PMC11246515
